Experimental data as given in patent publication US20120309692.
Values joined by “and” are separate entries in the source; they are usually repeats but may differ in a detail not shown here. Identical values can stand only once.

Tests used:
[1] = system: H-D-Val-Leu-Lys-AMC (SEQ ID NO: 57)
[2] = system: Z-Val-Val-Arg-AMC (SEQ ID NO: 61)
[3] = system: GHEQARRL (SEQ ID NO: 108)
[4] = system: H-Arg-Gln-Arg-Arg-AMC (SEQ ID NO: 63)
[5] = system: GGKAR-dR-L (SEQ ID NO: 122)
Semenogelin II = Semenogelin II (UniProt Q02383)
[6] = system: boc-Val-Pro-Arg-AMC (SEQ ID NO: 56)
[7] = system: Z-Ala-Arg-Arg-AMC (SEQ ID NO: 62)
[8] = system: GHEQKRR-dL (SEQ ID NO: 110)
[9] = system: H-Pro-Phe-Arg-AMC (SEQ ID NO: 55)
[10] = system: Boc-Phe-Ser-Arg-AMC (SEQ ID NO: 53)
[11] = system: GGKA-dR-dR-L (SEQ ID NO: 123)
[12] = target: protein C inhibitor (PCI) (UniProt P05154)
Semenogelin I = Semenogelin I (UniProt P04279)
[13] = system: Z-Leu-Leu-Arg-AMC (SEQ ID NO: 60)
[14] = system: GGKA-dR-RL (SEQ ID NO: 119)
[15] = system: Tos-Gly-Pro-Arg-AMC (SEQ ID NO: 58)
[16] = system: Tos-Gly-Pro-Lys-AMC (SEQ ID NO: 59)
[17] = system: Boc-Gln-Gly-Arg-AMC (SEQ ID NO: 54)
[18] = system: GHEQKRRE (SEQ ID NO: 113)
[19] = system: GAEQKRRL (SEQ ID NO: 103)

Chain of Semenogelin II (Q02383 24-582): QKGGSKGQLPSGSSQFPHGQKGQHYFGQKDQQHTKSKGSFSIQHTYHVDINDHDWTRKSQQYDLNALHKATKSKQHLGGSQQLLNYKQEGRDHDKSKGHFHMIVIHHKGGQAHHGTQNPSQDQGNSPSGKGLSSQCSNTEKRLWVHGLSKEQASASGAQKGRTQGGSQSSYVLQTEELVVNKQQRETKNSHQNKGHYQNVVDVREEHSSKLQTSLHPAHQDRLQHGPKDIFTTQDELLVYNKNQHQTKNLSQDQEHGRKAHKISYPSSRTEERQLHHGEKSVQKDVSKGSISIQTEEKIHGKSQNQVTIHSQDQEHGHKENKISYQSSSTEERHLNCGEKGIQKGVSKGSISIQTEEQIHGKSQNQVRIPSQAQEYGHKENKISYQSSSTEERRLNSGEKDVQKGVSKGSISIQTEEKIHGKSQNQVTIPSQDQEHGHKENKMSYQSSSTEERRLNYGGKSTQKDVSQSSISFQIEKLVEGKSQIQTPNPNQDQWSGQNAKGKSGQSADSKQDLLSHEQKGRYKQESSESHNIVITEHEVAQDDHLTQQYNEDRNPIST
Chain of Semenogelin I (P04279 24-462): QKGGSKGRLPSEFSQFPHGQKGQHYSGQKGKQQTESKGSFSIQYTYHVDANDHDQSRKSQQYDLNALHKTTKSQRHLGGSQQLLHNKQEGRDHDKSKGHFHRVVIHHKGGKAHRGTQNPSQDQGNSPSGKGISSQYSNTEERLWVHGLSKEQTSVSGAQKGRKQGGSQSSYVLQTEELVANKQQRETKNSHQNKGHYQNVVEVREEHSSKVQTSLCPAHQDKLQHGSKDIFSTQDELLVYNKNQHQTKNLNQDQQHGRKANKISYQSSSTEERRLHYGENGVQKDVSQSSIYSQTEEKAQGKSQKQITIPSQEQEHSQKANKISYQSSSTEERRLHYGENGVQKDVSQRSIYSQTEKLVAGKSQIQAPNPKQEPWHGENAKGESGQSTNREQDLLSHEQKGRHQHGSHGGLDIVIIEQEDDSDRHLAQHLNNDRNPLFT
Chain of protein C inhibitor (PCI) (P05154 20-406): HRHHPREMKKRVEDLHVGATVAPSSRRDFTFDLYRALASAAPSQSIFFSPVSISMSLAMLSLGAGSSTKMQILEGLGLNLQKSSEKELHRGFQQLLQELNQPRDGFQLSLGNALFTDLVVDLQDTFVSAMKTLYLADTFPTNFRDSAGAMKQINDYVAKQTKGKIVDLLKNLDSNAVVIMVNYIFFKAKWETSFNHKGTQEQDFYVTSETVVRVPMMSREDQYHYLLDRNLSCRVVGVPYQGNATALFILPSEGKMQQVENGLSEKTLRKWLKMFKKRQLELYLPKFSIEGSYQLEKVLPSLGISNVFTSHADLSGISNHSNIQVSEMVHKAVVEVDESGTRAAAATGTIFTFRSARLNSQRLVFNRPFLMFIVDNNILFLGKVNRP

“recombinant human glandular kallikrein 2 (hK2)” was tested, and the hK2 Hydrolysis Rate (GGKARKL (SEQ ID NO: 112)) was 1600 FU/hr/m, the hK2 Hydrolysis Rate (GSKGHFRL (SEQ ID NO: 70)) was 3030 FU/hr/m and the hK2 Hydrolysis Rate (GGKANRL (SEQ ID NO: 115)) was 1110 FU/hr/m. The hK2 Hydrolysis Rate (GGKARQL (SEQ ID NO: 116)) was 1020 FU/hr/m, the “substrate hydrolysis by hK2” value [1] was “NR” and the hK2 Hydrolysis Rate (GSYPSSRL (SEQ ID NO: 75)) was 1460 FU/hr/m. The hK2 Hydrolysis Rate (GGKARNL (SEQ ID NO: 118)) was 828 FU/hr/m, the “substrate hydrolysis by hK2” value [2] was “NR” and the hK2 Hydrolysis Rate (GSKGHRRL (SEQ ID NO: 71)) was 2650 FU/hr/m. It also gave a hK2 Hydrolysis Rate (GGKARRS (SEQ ID NO: 111)) of 1610 FU/hr/m, a hK2 Hydrolysis Rate [3] of 1960 FU/hr/m and a hK2 Hydrolysis Rate (GGKAKKL (SEQ ID NO: 120)) of 77.9 FU/hr/m. It also gave a hK2 Hydrolysis Rate (GHEAKRRL (SEQ ID NO: 95)) of 3320 FU/hr/m, a hK2 Hydrolysis Rate (GHEQKRRA (SEQ ID NO: 97)) of 3050 FU/hr/m and a hK2 Hydrolysis Rate (GKDVSGRL (SEQ ID NO: 79)) of 243 FU/hr/m. For the same substance, the “substrate hydrolysis by hK2” value [4] was “NR”, the hK2 Hydrolysis Rate (GSQNQRRL (SEQ ID NO: 73)) was 2100 FU/hr/m and the hK2 Hydrolysis Rate (GHEQKGHL (SEQ ID NO: 89)) was 1.3 FU/hr/m. The hK2 Hydrolysis Rate [5] was 49.6 FU/hr/m, the hK2 Hydrolysis Rate (GGGKARRL (SEQ ID NO: 67)) was 4780 FU/hr/m and the hK2 Hydrolysis Rate (GSQNQVRL (SEQ ID NO: 82)) was 194 FU/hr/m. The hK2 Hydrolysis Rate (GGKARHL (SEQ ID NO: 117)) was 939 FU/hr/m, the hK2 Hydrolysis Rate (GGGKAHHL (SEQ ID NO: 86)) was 70.2 FU/hr/m and the hK2 Hydrolysis Rate (GSNTEKRL (SEQ ID NO: 80)) was 256 FU/hr/m. It also gave a hK2 Hydrolysis Rate (GGQKRRL (SEQ ID NO: 96)) of 3270 FU/hr/m, a hK2 Hydrolysis Rate (GGGKAHRL (SEQ ID NO: 68)) of 4100 FU/hr/m and a hK2 Hydrolysis Rate (GGKHRRL (SEQ ID NO: 107)) of 2080 FU/hr/m. For the same substance, the hK2 Hydrolysis Rate (GKDVSGHL (SEQ ID NO: 85)) was 67.5 FU/hr/m, the hK2 Hydrolysis Rate (GHEQKRRS (SEQ ID NO: 99)) was 2640 FU/hr/m and the “cleavage by hK2 (HPLC of fragments)” value (Semenogelin II) was “Cleavage of either Sg I or Sg II with hK2 results in generation of a multitude of peptides”. It also gave a hK2 Hydrolysis Rate (GSQNQVHL (SEQ ID NO: 92)) of 32.5 FU/hr/m, an Activity (%) with 100 µM substrate, relative to H-Pro-Phe-Arg-AMC [6] of 6% and a Kcat [6] of 0.0267 s⁻¹. For the same substance, the Kcat/km [6] was 567 M⁻¹ s⁻¹, the Km [6] was 48 µM and the Activity (%) with 100 µM substrate, relative to H-Pro-Phe-Arg-AMC [7] was 33%. It also gave a Kcat [7] of 0.12 s⁻¹, a Kcat/km [7] of 6000 M⁻¹ s⁻¹ and a Km [7] of 20 µM. For the same substance, the hK2 Hydrolysis Rate (GGKARRL (SEQ ID NO: 105)) was 2170 FU/hr/m, the hK2 Hydrolysis Rate (GGKAQRL (SEQ ID NO: 104)) was 2230 FU/hr/m and the hK2 Hydrolysis Rate [8] was 1690 FU/hr/m. The hK2 Hydrolysis Rate (GHEQKRRL (SEQ ID NO: 66)) was 5970 FU/hr/m and 3370 FU/hr/m, the hK2 Hydrolysis Rate (GSNTERRL (SEQ ID NO: 77)) was 592 FU/hr/m and the hK2 Hydrolysis Rate (GKDVSRRL (SEQ ID NO: 72)) was 2320 FU/hr/m. The hK2 Hydrolysis Rate (GGKAHKL (SEQ ID NO: 121)) was 73.2 FU/hr/m, the Activity (%) with 100 µM substrate, relative to H-Pro-Phe-Arg-AMC [9] was 100% and the Kcat [9] was 0.917 s⁻¹. The Kcat/km [9] was 22900 M⁻¹ s⁻¹, the Km [9] was 40 µM and the “rate of cleavage of 100 µM substrate by 1.6 pmol hK2” value [9] was 1.6 pmol of the hK2 preparation cleaved 50 pmol/min of the 100 µM substrate Pro-Phe-Arg-AMC. For the same substance, the “substrate hydrolysis by hK2” value [10] was “NR”, the hK2 Hydrolysis Rate (GGKSRRL (SEQ ID NO: 94)) was 3440 FU/hr/m and the hK2 Hydrolysis Rate (GPAHQDRL (SEQ ID NO: 88)) was 75.3 FU/hr/m. For the same substance, the hK2 Hydrolysis Rate (GPAHQRRL (SEQ ID NO: 69)) was 4020 FU/hr/m, the hK2 Hydrolysis Rate [11] was 16.5 FU/hr/m and the hK2 Hydrolysis Rate (GHEQKGRL (SEQ ID NO: 76)) was 651 FU/hr/m. It also gave a hK2 Hydrolysis Rate (GSYEERRL (SEQ ID NO: 78)) of 325 FU/hr/m, a hK2 Hydrolysis Rate (GSYPSRRL (SEQ ID NO: 74)) of 2060 FU/hr/m and a hK2 Hydrolysis Rate (GSNTEKHL (SEQ ID NO: 87)) of 80.5 FU/hr/m. For the same substance, the “progress curves of Pro-Phe-Arg-AMC hydrolysis by 8 nM hK2 with 80, 40 or 16 nM PCI” value [12] was “The inhibitor of hK2 by PCI could be described by the slow-binding inhibition mechanism presented in Scheme 2”, the hK2 Hydrolysis Rate (GPLILSRL (SEQ ID NO: 83)) was 118 FU/hr/m and the hK2 Hydrolysis Rate (GSKGHFHL (SEQ ID NO: 81)) was 171 FU/hr/m. For the same substance, the hK2 Hydrolysis Rate (GGHKRRL (SEQ ID NO: 101)) was 2430 FU/hr/m, the “cleavage by hK2 (HPLC of fragments)” value (Semenogelin I) was “Cleavage of either Sg I or Sg II with hK2 results in generation of a multitude of peptides” and the hK2 Hydrolysis Rate (GGKQRRL (SEQ ID NO: 106)) was 2170 FU/hr/m. It also gave an Activity (%) with 100 µM substrate, relative to H-Pro-Phe-Arg-AMC [13] of 7%, a Kcat [13] of 0.04 s⁻¹ and a Kcat/km [13] of 567 M⁻¹ s⁻¹. The Km [13] was 71 µM, the hK2 Hydrolysis Rate (GSYPSSHL (SEQ ID NO: 91)) was 24.7 FU/hr/m and the hK2 Hydrolysis Rate [14] was 494 FU/hr/m. For the same substance, the “substrate hydrolysis by hK2” value [15] was “NR”, the hK2 Hydrolysis Rate (GHAQKRRL (SEQ ID NO: 93)) was 3670 FU/hr/m and the “substrate hydrolysis by hK2” value [16] was “NR”. The “substrate hydrolysis by hK2” value [17] was “NR”, the hK2 Hydrolysis Rate (GPAHQDHL (SEQ ID NO: 90)) was 48.1 FU/hr/m and the hK2 Hydrolysis Rate (GGKAFRL (SEQ ID NO: 102)) was 2370 FU/hr/m. For the same substance, the hK2 Hydrolysis Rate [18] was 1470 FU/hr/m, the hK2 Hydrolysis Rate (GGKAKRL (SEQ ID NO: 109)) was 1790 FU/hr/m and the hK2 Hydrolysis Rate (GSYEERHL (SEQ ID NO: 84)) was 42.9 FU/hr/m. The hK2 Hydrolysis Rate (GGKKRRL (SEQ ID NO: 100)) was 2580 FU/hr/m, the hK2 Hydrolysis Rate [19] was 2330 FU/hr/m and the hK2 Hydrolysis Rate (GGKAHRL (SEQ ID NO: 114)) was 1290 FU/hr/m. For the same substance, the hK2 Hydrolysis Rate (GGAKRRL (SEQ ID NO: 98)) was 2770 FU/hr/m.
